Consider two variants from IntAct's records for PubMed 19549854.

Sequences and labels used below:
B1: [PIN+] prion protein RNQ1 (Saccharomyces cerevisiae), P25367 (parent)
chain: MDTDKLISEAESHFSQGNHAEAVAKLTSAAQSNPNDEQMSTIESLIQKIAGYVMDNRSGGSDASQDRAAGGGSSFMNTLMADSKGSSQTQLGKLALLATVMTHSSNKGSSNRGFDVGTVMSMLSGSGGGSQSMGASGLAALASQFFKSGNNSQGQGQGQGQGQGQGQGQGQGSFTALASLASSFMNSNNNNQQGQNQSSGGSSFGALASMASSFMHSNNNQNSNNSQQGYNQSYQNGNQNSQGYNNQQYQGGNGGYQQQQGQSGGAFSSLASMAQSYLGGGQTQSNQQQYNQQGQNNQQQYQQQGQNYQHQQQGQQQQQGHSSSFSALASMASSYLGNNSNSNSSYGGQQQANEYGRPQQNGQQQSNEYGRPQYGGNQNSNGQHESFNFSGNFSQQNNNGNQNRY

Variants of B1 are the subject of this experiment. As to conditions: with mas5_yeast YDJ1, P25491.
Sequence of mas5_yeast YDJ1, P25491 (P25491 whole entry): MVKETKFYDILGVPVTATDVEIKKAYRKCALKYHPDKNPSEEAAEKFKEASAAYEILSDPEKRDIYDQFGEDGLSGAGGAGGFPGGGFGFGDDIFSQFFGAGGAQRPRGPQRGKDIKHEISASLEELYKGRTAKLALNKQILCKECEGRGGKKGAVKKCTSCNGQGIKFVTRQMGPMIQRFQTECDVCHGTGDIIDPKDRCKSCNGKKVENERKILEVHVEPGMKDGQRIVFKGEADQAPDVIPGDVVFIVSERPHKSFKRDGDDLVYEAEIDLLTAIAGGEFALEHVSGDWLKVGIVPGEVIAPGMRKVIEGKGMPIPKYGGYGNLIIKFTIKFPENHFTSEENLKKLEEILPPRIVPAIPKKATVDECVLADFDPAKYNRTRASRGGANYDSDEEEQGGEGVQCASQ
For the variant MDTDKLISEAESHFSQGNHAEAVAKLTSAAQSNPNDEQMSTIESLIQKIAGYVMDNRSGGSDASQDRAAGGGSSFMNTLMADSKGSSQTQLGKLALLATVMTHSSNKGSSNRGFDVGTVMSMLSGSGGGSQSMGASGLAALASQFFKSGNNSQGQGQGQGQGQGQGQGQGQGSFTALASLASSFMNSNNNNQQGQNQSSGGSSFGALASMASSFMHSNNNQNSNNSQQGYNQSYQNGNQNSQGYNNQQYQGGNGGYYQQQGQSGGAFSSLASMAQSYLGGGQTQSNQQQYNQQGQNNQQQYQQQGQNYQHQQQGQQQQQGHSSSFSALASMASSYLGNNSNSNSSYGGQQQANEYGRPQQNGQQQSNEYGRPQYGGNQNSNGQHESFNFSGNFSQQNNNGNQNRY [Q257Y], the “effect of a mutation on the interaction” value is recorded as “disrupting interaction”. Take MDTDKLISEAESHFSQGNHAEAVAKLTSAAQSNPNDEQMSTIESLIQKIAGYVMDNRSGGSDASQDRAAGGGSSFMNTLMADSKGSSQTQLGKLALLATVMTHSSNKGSSNRGFDVGTVMSMLSGSGGGSQSMGASGLAALASQFFKSGNNSQGQGQGQGQGQGQGQGQGQGSFTALASLASSFMNSNNNNQQGQNQSSGGSSFGALASMASSFMHSNNNQNSNNSQQGYNQSYQNGNQNSQGYNNQQYQGGYGGYQQQQGQSGGAFSSLASMAQSYLGGGQTQSNQQQYNQQGQNNQQQYQQQGQNYQHQQQGQQQQQGHSSSFSALASMASSYLGNNSNSNSSYGGQQQANEYGRPQQNGQQQSNEYGRPQYGGNQNSNGQHESFNFSGNFSQQNNNGNQNRY [N253Y]: the “effect of a mutation on the interaction” value is “disrupting interaction”.
